Measured values reported in article PMC6134095.
pKd: −log10 of the molar value. Each block holds one substance with its values, some of them ahead of it.

Tests used:
[1] = target: FtsQ (58–276), periplasmic domain of E. coli FtsQ (Escherichia coli strain K-12) (UniProt P06136); experiment: SPR; FtsQ (58–276) immobilised on a CM5 chip by amide coupling (~1,000 RU); Biacore T200, 20°C; 10 mM HEPES pH 7.4, 150 mM NaCl, 0.4% glycerol; analytes injected 120 s, 600 s dissociation, 1:2 dilution series, triplicate
[2] = target: FITC-labeled FtsB 64–87 peptide (E. coli) (UniProt P0A6S5); experiment: fluorescence polarisation; 10 nM FITC-labeled FtsB 64–87 peptide, FtsQ in threefold dilutions from 800 µM to 0.5 nM; 10 mM HEPES pH 7.4, 150 mM NaCl, 0.1% Tween 20; 1 h at room temperature

Chain of FtsQ (58–276), periplasmic domain of E. coli FtsQ (Escherichia coli strain K-12) (P06136 58-276): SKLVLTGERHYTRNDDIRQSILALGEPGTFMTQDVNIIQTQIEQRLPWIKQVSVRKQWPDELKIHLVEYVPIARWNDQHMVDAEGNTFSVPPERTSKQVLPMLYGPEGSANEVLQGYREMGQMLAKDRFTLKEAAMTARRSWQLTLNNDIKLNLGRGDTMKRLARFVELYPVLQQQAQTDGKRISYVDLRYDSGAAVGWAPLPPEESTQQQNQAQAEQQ
Chain of FtsN (57–319), periplasmic domain of E. coli FtsN (P29131 57-319): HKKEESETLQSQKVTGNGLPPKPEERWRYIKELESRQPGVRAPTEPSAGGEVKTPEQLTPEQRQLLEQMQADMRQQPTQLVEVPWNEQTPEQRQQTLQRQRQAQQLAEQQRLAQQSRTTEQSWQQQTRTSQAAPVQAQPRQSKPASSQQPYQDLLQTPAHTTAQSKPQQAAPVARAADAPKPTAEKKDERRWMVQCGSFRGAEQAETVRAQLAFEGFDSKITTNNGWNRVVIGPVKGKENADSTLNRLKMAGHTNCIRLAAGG
Chain of FtsN (58–320) plus FtsB (22–103), bound together (A7ZQJ2 22-103): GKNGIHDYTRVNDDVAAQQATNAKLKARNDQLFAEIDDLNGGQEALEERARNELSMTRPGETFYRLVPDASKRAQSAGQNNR
Chain of FtsN (58–320) plus FtsB (22–103), bound together (P29131 57-319): as the sequence (P29131 57-319) above

Substance: FtsN (57–319), periplasmic domain of E. coli FtsN (from UniProt P29131 57-319) (domain or fragment)
- pKd [1]: 5.60

Substance: FtsQ (58–276), periplasmic domain of E. coli FtsQ (from UniProt P06136 58-276) (domain or fragment)
- pKd [2]: 5.02

The remaining lines, values ahead:

- Kd of FtsB and FtsN bound together [1]: 120 nM
Substance: FtsN (58–320) plus FtsB (22–103), bound together (from UniProt P0A6S5 22-103; P29131 57-319)

- fold reduction of binding against wild-type FtsB [1]: 10 fold
Substance: FtsB F84A (from UniProt P0A6S5 22-103) (domain or fragment)

- fold reduction of binding against wild-type FtsB [1]: 10 fold
Substance: FtsB R72A (from UniProt P0A6S5 22-103) (domain or fragment)
